{"source": "patent US20240335558A1", "about": "“ISOLATED POLYPEPTIDE AND USE THEREOF” (GLYCO-THERAPY BIOTECHNOLOGY CO., LTD., priority 2021, published 2024)", "molecules": {"B1": {"name": "HpFT-2HR: H. pylori α-1,3-fucosyltransferase variant: catalytically active domain, two heptapeptide repeat sequences and C-terminus fused His tag (protein)", "chain": "MFQPLLDAFIESASIEKMVSKSPPPPLKIAVANWWGDEEIKEFKKSVLYFILSQRYAITLHQNPNESSDLVFSNPLGAARKILSYQNTKRVFYTGENESPNFNLFDYAIGFDELDFNDRYLRMPLYYAHLHYEAELVNDTTAPYKLKDNSLYALKKPSHHFKENHPNLCAVVNDESDLLKRGFASFVASNANAPMRNAFYDALNSIEPVTGGGSVRNTLGYKVGNKSEFLSQYKFNLCFENSQGYGYVTEKILDAYFSHTIPIYWGSPSVAKDFNPKSFVNVHDFNNFDEAIDYIKYLHTHPNAYLDMLYENPLNTLDGKAYFYQDLSFKKILDFFKTILENDTIYHNNPFIFYRDLHEPLISIDDLRVNYDDLRVNYLEHHHHHH", "modifications": "Catalytically active domain of Helicobacter pylori Alpha-(1,3)-fucosyltransferase (GenBank No.AAD07710.1) with 2 heptapeptide repeats and a C-terminal His tag"}}, "format_in_all_cases": "biochemical", "key": {"Trastuzumab-G2F [1]": {"system": "Trastuzumab-G2F", "assay": "HpFT-2HR and HpFT-4HR transferring GDP-FAmSucMMAE to Trastuzumab-G2F", "conditions": "donor 1 mM, enzyme 0.5 mg/mL, 30° C., 3 h and 6 h; FIG. 7A", "description": "(§1) To 40 mM Tris-HCl (pH 7.5) buffer were added Trastuzumab-G2F (2 mg/mL final), GDP-FAmP4Biotin (1 mM final), MgCl2 (20 mM final), and different HpFT enzymes (HpFT-4HR, HpFT-4HR(M4), HpFT-4HR(M7), HpFT-6HR, HpFT-3HR, HpFT-2HR, HpFT-1HR, or HpFT-0HR) (0.5 mg/mL final) in sequence, and the resulting mixed solution was allowed to react at 30° C. for 3 h. Three parallels were set up for each group. After the reaction time point was reached, to the reaction solution was added 10 mM LacNAc (N-acetyl-D-lactosamine), and the reaction was terminated by a desalting column (Zeba™ Spin Desalting Columns/2 ml/40K, Thermo Fisher Scientific), and finally mass spectrometry was carried out and % of conversion was calculated. % of conversion=(MAR0 peak intensity*0+MAR1peak intensity*1+MAR2 peak intensity*2+MAR3 peak intensity*3+MAR4 peak intensity*4)/4* (MAR0 peak intensity+MAR1 peak intensity+MAR2 peak intensity+MAR3 peak intensity+MAR4 peak intensity)*100%.\n(§2) To 40 mM Tris-HCl (pH 7.5) buffer were added Trastuzumab-G2F or Durvalumab-G2F (2 mg/mL final), GDP-FAmSucMMAE (1 mM final), MgCl2 (20 mM final), and HpFT-2HR or HpFT-4HR (0.5 mg/mL final) in sequence, and the resulting mixed solution was allowed to react at 30° C. for 3 h and 6 h. Three parallels were set up for each group. […]"}, "Trastuzumab-G2F [2]": {"system": "Trastuzumab-G2F", "assay": "Transfer of GDP-FAmP4Biotin to Trastuzumab-G2F by different HpFTs (% of conversion by MS)", "conditions": "donor GDP-FAmP4Biotin 1 mM, enzyme 0.5 mg/mL, 30° C., 3 h; FIG. 1", "description": "as §1"}, "[3]": {"system": "Trastuzumab-(GalNAzβ1,4)GlcNAc", "assay": "Transfer of GDP-FAmP4Biotin to Trastuzumab-(GalNAzβ1,4)GlcNAc by different HpFTs", "conditions": "donor GDP-FAmP4Biotin 1 mM, enzyme 0.5 mg/mL, 30° C., 3 h; FIG. 4"}, "Durvalumab-G2F": {"system": "Durvalumab-G2F", "assay": "HpFT-2HR and HpFT-4HR transferring GDP-FAmSucMMAE to Durvalumab-G2F", "conditions": "donor 1 mM, enzyme 0.5 mg/mL, 30° C., 3 h and 6 h; FIG. 7B", "description": "as §1, §2"}, "[4]": {"system": "Trastuzumab-(GalNAzβ1,4)GlcNAc", "assay": "HpFT-2HR and HpFT-4HR transferring GDP-FAmSucMMAE to Trastuzumab-(GalNAzβ1,4)GlcNAc", "conditions": "donor 1 mM, enzyme 0.5 mg/mL, 30° C., 3 h and 6 h; FIG. 8A", "description": "as §1, with “added Trastuzumab-(Fucα1,6)(Galβ1,4)GlcNAc” for “added Trastuzumab-G2F”, “HpFT-2HR, HpFT-1HR” for “HpFT-2HR, HpFT-1HR,”, “for 1” for “for 3”, “mM LacNA,” for “mM LacNAc (N-acetyl-D-lactosamine),”, “peak intensity*2)/2*” for “peak intensity*2+MAR3 peak intensity*3+MAR4 peak intensity*4)/4*”, “peak” for “peak intensity+MAR3 peak intensity+MAR4 peak”\nas §2, with “Trastuzumab-(GalNAzβ1,4)GlcNAc” for “Trastuzumab-G2F”, “Durvalumab-(GalNAzβ1,4)GlcNAc” for “Durvalumab-G2F”"}, "[5]": {"system": "Trastuzumab-(Fucα1,6)(Galβ1,4)GlcNAc", "assay": "Transfer of GDP-FAmP4Biotin to Trastuzumab-(Fucα1,6)(Galβ1,4)GlcNAc by different HpFTs", "conditions": "donor GDP-FAmP4Biotin 1 mM, enzyme 0.5 mg/mL, 30° C., 1 h; FIG. 2", "description": "as §1, with “added Trastuzumab-(Fucα1,6)(Galβ1,4)GlcNAc” for “added Trastuzumab-G2F”, “HpFT-2HR, HpFT-1HR” for “HpFT-2HR, HpFT-1HR,”, “for 1” for “for 3”, “mM LacNA,” for “mM LacNAc (N-acetyl-D-lactosamine),”, “peak intensity*2)/2*” for “peak intensity*2+MAR3 peak intensity*3+MAR4 peak intensity*4)/4*”, “peak” for “peak intensity+MAR3 peak intensity+MAR4 peak”"}}, "data": [{"molecule": "B1", "values": [{"measurement": "activity in catalyzing the transfer of GDP-FAmSucMMAE, as compared with HpFT-4HR", "setting": "Trastuzumab-G2F [1]", "value": "significantly improved activity"}, {"measurement": "catalytic activity among the HpFT variants", "setting": "Trastuzumab-G2F [2]", "value": "highest catalytic activity"}, {"measurement": "catalytic activity as compared with HpFT-4HR (% of conversion)", "setting": "Trastuzumab-G2F [2]", "value": "significantly improved catalytic activity"}, {"measurement": "catalytic activity among the HpFT variants", "setting": "[3]", "value": "relatively high catalytic activity"}, {"measurement": "catalytic activity as compared with HpFT-4HR (% of conversion)", "setting": "[3]", "value": "significantly improved catalytic activity"}, {"measurement": "activity in catalyzing the transfer of GDP-FAmSucMMAE, as compared with HpFT-4HR", "setting": "Durvalumab-G2F", "value": "significantly improved activity"}, {"measurement": "activity in catalyzing the transfer of GDP-FAmSucMMAE, as compared with HpFT-4HR", "setting": "[4]", "value": "significantly improved activity"}, {"measurement": "catalytic activity as compared with HpFT-4HR (% of conversion)", "setting": "[5]", "value": "significantly improved catalytic activity"}]}]}
